The record followed here is patent US20130171155A1.

What all share (experiment): cell-based or functional assay
In experiment [1] the target is baboon factor D (in baboon serum or plasma) (baboon).
For experiment [2], the target named is dog factor D (in dog serum) (dog). Particulars: scale: times less effective than on human factor D.
Experiment [3] deals with human factor D purified from human serum (human) (UniProt P00746).
UniProt P00746, sequence (P00746 26-253 N180D): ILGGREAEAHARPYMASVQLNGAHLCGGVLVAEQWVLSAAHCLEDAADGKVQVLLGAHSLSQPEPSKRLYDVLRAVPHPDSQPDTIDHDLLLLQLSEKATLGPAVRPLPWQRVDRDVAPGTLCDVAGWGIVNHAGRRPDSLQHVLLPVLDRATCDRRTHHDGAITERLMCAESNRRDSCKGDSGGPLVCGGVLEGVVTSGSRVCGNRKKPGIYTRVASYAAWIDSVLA

Turning to MAb 166-32 (antibody), the inhibition of alternative complement hemolytic activity of baboon plasma, 18 hours after CPB in experiment [1] is 79.3%. Further, the neutralization of dog factor D in hemolytic assays in experiment [2] is greater than 10. Further, in experiment [3], the alternative complement activity (hemolytic assay, unsensitized rabbit RBCs) in paired extracorporeal circuits came to 18 µg/mL; the alternative pathway hemolytic activity of plasma from extracorporeal circuits (human whole blood) (molar ratio (MAb:factor D)) was 1.5; the factor D dependent hemolysis of unsensitized rabbit RBCs (factor D depleted human serum with added factor D) was found to be 0.3 µg/mL.
